Reference: publication PMC3469519 (Molecular Biology of the Cell, 2012)
Read-outs that look alike come from different tables or passages of the source. Blank lines part the entries; values can stand above or below the binder they belong to.

Columns and labels:
Assay in all cases: pull-down
[1] = molecular target: T1, full-length 6His-Bnr1 (S. cerevisiae, UniProt P40450 1-1375)
[2] = molecular target: T2, 6His-Bnr1-758 (Bnr1-N) (S. cerevisiae, UniProt P40450 1-758)
T2 sequence (looked up): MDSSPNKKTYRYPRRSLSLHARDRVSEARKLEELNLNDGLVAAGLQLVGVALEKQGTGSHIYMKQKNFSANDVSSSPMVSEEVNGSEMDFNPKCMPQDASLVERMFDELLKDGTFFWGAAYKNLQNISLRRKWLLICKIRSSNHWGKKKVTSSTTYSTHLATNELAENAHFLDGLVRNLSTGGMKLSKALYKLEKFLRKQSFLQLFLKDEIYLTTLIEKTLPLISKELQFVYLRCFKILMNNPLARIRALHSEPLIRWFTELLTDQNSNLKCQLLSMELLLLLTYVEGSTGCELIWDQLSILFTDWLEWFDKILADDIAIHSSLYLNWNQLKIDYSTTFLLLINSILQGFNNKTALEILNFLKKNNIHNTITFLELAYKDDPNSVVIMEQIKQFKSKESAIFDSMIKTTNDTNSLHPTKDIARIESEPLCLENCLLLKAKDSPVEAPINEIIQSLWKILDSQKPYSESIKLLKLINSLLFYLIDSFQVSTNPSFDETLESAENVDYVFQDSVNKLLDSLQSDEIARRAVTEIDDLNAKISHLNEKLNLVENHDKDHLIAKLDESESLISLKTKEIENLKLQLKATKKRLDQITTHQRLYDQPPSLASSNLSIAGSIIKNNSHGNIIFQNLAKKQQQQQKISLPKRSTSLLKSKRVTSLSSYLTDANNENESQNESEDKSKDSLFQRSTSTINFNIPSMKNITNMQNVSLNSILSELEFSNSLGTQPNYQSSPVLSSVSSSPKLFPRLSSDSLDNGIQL

[3] = molecular target: T1, full-length 6His-Bnr1; remark: listed apart in the source

- binding result [1]: binds
- binding result [2]: binds
B1: pCAL-n-FLAG-Gin4-C (amino acids 540–1142) (domain or fragment, S. cerevisiae, UniProt Q12263 540-1142, looked up)
chain: SSNFATLIDEIFEYEKYEQIRKEKEELERKVREAKAREELERRRRKQEEKERARKLLEKEDLKRKQEELKKQIEIDISDLEQELSKHKEEKLDGNIRSISAPMENEEKNINHLEVDIDNILRRRNFSLQTRPVSRLDPGIMFSSPTEEVSPVEPKRTENERLTTEKKILETIRRSKFLGSSFNIDKELKLSKMEYPSIIAPQRLSEERVVSDSNDGYESLILPKDGNGVSQLKDSTATTAPVSDGRLRKISEIRVPQFTRKSRHFSESNKRLSVLSMYSTKESFTNLVDILKNGNLDVNNQQSQRIPTPRSADDSEFLFETVNEEAEYTGNSSNDERLYDVGDSTIKDKSALKLNFADRFNGSNEAKQTDNLHLPILPPLNGDNELRKQNSQEGDQAHPKIKSMIPESGSSSHTEKEEENEEKEEKKPEQHKQEEDQEKREKVVDDMEPPLNKSVQKIREKNAGSQAKDHSKDHLKEHKQDKNTAIGNGSFFRKFSKSSDKTMELYAKISAKQLFNGLEKLLRGWTQYGLKNIKSHPNNLTLTGKLSSDNIFSLRSTLFEVNIYPRGKMSVVQFKKVSGSFKAVKKLVNEVENVLNKEGVLQK

- binding result [3]: binds
B2: full-length GST-Gin4 (enzyme, S. cerevisiae, UniProt Q12263 1-1142, looked up)
chain: MAINGNSIPAIKDNTIGPWKLGETLGLGSTGKVQLARNGSTGQEAAVKVISKAVFNTGNVSGTSIVGSTTPDALPYGIEREIIIMKLLNHPNVLRLYDVWETNTDLYLVLEYAEKGELFNLLVERGPLPEHEAIRFFRQIIIGVSYCHALGIVHRDLKPENLLLDHKYNIKIADFGMAALETEGKLLETSCGSPHYAAPEIVSGIPYQGFASDVWSCGVILFALLTGRLPFDEEDGNIRTLLLKVQKGEFEMPSDDEISREAQDLIRKILTVDPERRIKTRDILKHPLLQKYPSIRDSKSIRGLPREDTYLTPLSESNSSIDATILQNLVILWHGRDPEGIKEKLREPGANAEKTLYALLYRFKCDTQKELIKQQQVKKRQSISSVSVSPSKKVSTTPQRRRNRESLISVTSSRKKPISFNKFTASSASSSNLTTPGSSKRLSKNFSSKKKLSTIVNQSSPTPASRNKRASVINVEKNQKRASIFSTTKKNKRSSRSIKRMSLIPSMKRESVTTKLMSTYAKLAEDDDWEYIEKETKRTSSNFATLIDEIFEYEKYEQIRKEKEELERKVREAKAREELERRRRKQEEKERARKLLEKEDLKRKQEELKKQIEIDISDLEQELSKHKEEKLDGNIRSISAPMENEEKNINHLEVDIDNILRRRNFSLQTRPVSRLDPGIMFSSPTEEVSPVEPKRTENERLTTEKKILETIRRSKFLGSSFNIDKELKLSKMEYPSIIAPQRLSEERVVSDSNDGYESLILPKDGNGVSQLKDSTATTAPVSDGRLRKISEIRVPQFTRKSRHFSESNKRLSVLSMYSTKESFTNLVDILKNGNLDVNNQQSQRIPTPRSADDSEFLFETVNEEAEYTGNSSNDERLYDVGDSTIKDKSALKLNFADRFNGSNEAKQTDNLHLPILPPLNGDNELRKQNSQEGDQAHPKIKSMIPESGSSSHTEKEEENEEKEEKKPEQHKQEEDQEKREKVVDDMEPPLNKSVQKIREKNAGSQAKDHSKDHLKEHKQDKNTAIGNGSFFRKFSKSSDKTMELYAKISAKQLFNGLEKLLRGWTQYGLKNIKSHPNNLTLTGKLSSDNIFSLRSTLFEVNIYPRGKMSVVQFKKVSGSFKAVKKLVNEVENVLNKEGVLQK
